The results in this text go back to patent publication US20240358755A1 (IMMATICS BIOTECHNOLOGIES, published 2024).

Bounds are passed on as bounds.

In one test the target is T1, HLA-A*24:02 (human).
T1 construct: Peptide-receptive MHC class I monomer in the UV-ligand exchange assay
The experiment in a line: allele assigned to HLA ligand eluted from tissue (IP, LC-MS).

A further test addresses T2, HLA-A*02:01 (human).
T2 construct: Peptide-receptive MHC class I monomer in the UV-ligand exchange assay
The test is described as follows: UV peptide exchange, anti-b2m ELISA; exchange yield grade. The text has this: Candidate peptides for T cell based therapies according to the present invention were further tested for their MHC binding capacity (affinity). The individual peptide-MHC complexes were produced by UV-ligand exchange, where a UV-sensitive peptide is cleaved upon UV-irradiation and exchanged with the peptide of interest as analyzed. Only peptide candidates that can effectively bind and stabilize the peptide-receptive MHC molecules prevent dissociation of the MHC complexes. To determine the yield of the exchange reaction, an ELISA was performed based on the detection of the light chain (β2m) of stabilized MHC complexes. The assay was performed as generally described in Rodenko et al. (Rodenko et al., 2006).
96 well MAXISorp plates (NUNC) were coated over night with 2 μg/ml streptavidin in PBS at room temperature, washed 4× and blocked for 1 h at 37° C. in 2% BSA containing blocking buffer. […] Peptide-MHC monomers of the UV-exchange reaction were diluted 100-fold in blocking buffer. Samples were incubated for 1 h at 37° C., washed four times, incubated with 2 μg/ml HRP conjugated anti-β2m for 1 h at 37° C., washed again and detected with TMB solution that is stopped with […]. Absorption was measured at 450 nm.
In general terms: ELISA stands for enzyme-linked immunosorbent assay.

With IFTGRNAYF, in the test with HLA-A*24:02, the binding result is recorded as “binds”.

As to IYLTKSNLVNM, the binding result with HLA-A*24:02 is reported as “binds”.

Regarding LWALAIPSL, the binding result with HLA-A*24:02 was “binds”.

In the case of SQIKSPVVF, the binding result in the test with HLA-A*24:02 is recorded as “binds”.

On to IWRALGSLF, for which the binding result with HLA-A*24:02 was “binds”.

As to LYDTVTHTF, in the test with HLA-A*24:02, the binding result is “binds”.

In the case of EYLGSENVF, in the test with HLA-A*24:02, the binding result is “binds”.

For the molecule YMLEMDNSMKI, the peptide exchange yield with HLA-A*02:01 is ≥ 75%.

As for VFVISGSHLF, the binding result with HLA-A*24:02 was “binds”.

ILAPPQRISF: the binding result with HLA-A*24:02 is “binds”.

Consider LWEEKPVCL, for which the binding result in the test with HLA-A*24:02 is given as “binds”.

On to HLFSVLSAI, for which, in the test with HLA-A*02:01, the peptide exchange yield was ≥ 75%.

As for GLLGTLRVL, in the test with HLA-A*02:01, the peptide exchange yield is ≥ 75%.

For the molecule QYLTYYPSF, the binding result with HLA-A*24:02 was “binds”.

As for SYLKDHLSL, the binding result with HLA-A*24:02 is listed as “binds”.

On to LLDSWNILI, for which the peptide exchange yield with HLA-A*02:01 is ≥ 75%.

Take ITPDSIPSV: the peptide exchange yield with HLA-A*02:01 lay in the range of 50 to 75%.

As for KLPFFTNFL, the peptide exchange yield with HLA-A*02:01 was ≥ 75%.

With NFHTLAQQLLF, in the test with HLA-A*24:02, the binding result is reported as “binds”.

As to SHSSPTVSF, in the test with HLA-A*24:02, the binding result is “binds”.

In the case of KFPPSASEF, the binding result in the test with HLA-A*24:02 is recorded as “binds”.

Take FYNPRPPLI: in the test with HLA-A*24:02, the binding result was “binds”.

On to TYLESSVRI, for which the binding result with HLA-A*24:02 was “binds”.

In the test with HLA-A*02:01, FALGPIIKQL came in with a peptide exchange yield of 50 to 75%.

As to ALNLSRLTV, the peptide exchange yield with HLA-A*02:01 is ≥ 75%.

Take FQLSGPVTF: in the test with HLA-A*24:02, the binding result was “binds”.

In the case of LYLETRSEF, the binding result in the test with HLA-A*24:02 is “binds”.
